Data: patent publication US20100310509A1

Target: OSMR:gp130 receptor complex on A375 melanoma cells (UniProt Q99650)
Experiment: cell-based or functional assay

Chain of OSMR:gp130 receptor complex on A375 melanoma cells (Q99650 28-979 limits assumed, chain 1 of 2): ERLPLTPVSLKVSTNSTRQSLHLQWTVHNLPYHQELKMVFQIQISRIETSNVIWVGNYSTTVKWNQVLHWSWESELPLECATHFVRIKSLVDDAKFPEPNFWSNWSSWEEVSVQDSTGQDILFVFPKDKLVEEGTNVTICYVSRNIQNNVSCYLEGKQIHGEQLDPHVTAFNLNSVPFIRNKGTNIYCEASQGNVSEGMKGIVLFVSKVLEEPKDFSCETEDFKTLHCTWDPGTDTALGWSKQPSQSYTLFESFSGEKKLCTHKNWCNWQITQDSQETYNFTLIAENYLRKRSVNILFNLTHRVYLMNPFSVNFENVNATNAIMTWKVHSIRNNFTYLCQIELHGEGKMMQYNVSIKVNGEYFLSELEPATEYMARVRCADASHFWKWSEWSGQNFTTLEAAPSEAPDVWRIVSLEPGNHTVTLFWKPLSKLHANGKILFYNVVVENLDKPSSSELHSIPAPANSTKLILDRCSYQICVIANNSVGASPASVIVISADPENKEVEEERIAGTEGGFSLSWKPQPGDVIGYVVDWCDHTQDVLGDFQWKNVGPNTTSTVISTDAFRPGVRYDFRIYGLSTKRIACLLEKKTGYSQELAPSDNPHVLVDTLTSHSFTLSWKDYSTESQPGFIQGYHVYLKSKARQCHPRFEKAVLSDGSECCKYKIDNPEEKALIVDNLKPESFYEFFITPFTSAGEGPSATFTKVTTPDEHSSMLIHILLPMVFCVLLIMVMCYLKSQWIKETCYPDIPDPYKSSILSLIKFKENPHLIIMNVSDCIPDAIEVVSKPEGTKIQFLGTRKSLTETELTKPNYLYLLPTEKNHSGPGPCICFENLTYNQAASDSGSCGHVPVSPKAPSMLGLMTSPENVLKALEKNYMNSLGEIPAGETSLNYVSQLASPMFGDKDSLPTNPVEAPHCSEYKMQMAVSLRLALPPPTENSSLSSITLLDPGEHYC
Chain of OSMR:gp130 receptor complex on A375 melanoma cells (P40189 23-918 limits assumed, chain 2 of 2, further chain): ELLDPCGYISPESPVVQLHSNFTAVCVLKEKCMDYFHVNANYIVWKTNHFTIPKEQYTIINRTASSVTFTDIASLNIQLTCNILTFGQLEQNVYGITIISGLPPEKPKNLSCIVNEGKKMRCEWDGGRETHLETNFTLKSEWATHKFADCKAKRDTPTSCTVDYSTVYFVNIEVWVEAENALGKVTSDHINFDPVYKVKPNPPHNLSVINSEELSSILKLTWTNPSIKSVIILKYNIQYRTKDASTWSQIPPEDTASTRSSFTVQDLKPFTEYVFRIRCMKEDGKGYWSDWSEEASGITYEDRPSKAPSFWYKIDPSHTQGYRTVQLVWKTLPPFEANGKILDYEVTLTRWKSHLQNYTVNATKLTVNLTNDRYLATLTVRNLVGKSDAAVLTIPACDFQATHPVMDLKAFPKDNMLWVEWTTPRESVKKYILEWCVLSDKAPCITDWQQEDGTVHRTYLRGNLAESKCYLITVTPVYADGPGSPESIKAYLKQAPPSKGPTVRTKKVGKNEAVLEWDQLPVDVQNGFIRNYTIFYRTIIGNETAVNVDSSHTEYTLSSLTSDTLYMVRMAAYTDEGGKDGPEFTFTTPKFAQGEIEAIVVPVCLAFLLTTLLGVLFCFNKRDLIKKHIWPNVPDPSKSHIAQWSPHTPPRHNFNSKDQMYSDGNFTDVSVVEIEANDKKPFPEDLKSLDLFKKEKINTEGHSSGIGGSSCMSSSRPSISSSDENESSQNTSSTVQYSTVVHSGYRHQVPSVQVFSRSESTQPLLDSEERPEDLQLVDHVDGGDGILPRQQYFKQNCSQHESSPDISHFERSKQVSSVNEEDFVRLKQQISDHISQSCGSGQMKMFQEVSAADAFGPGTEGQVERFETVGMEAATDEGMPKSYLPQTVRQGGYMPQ

concentration that suppresses A375 melanoma cell proliferation by ~50%: 20 ng/mL
concentration that suppresses A375 melanoma cell proliferation by ~90%: 50 ng/mL
Substance: OSM-WT ('AGA' modified human Oncostatin M, referred to as wild-type OSM) (from UniProt P13725 26-217) (ligand)
